{"source": "the supplement of paper PMC10567573", "parents": {"B1": {"name": "DYRK1B (parent)", "chain": "ARKYFERLPGGGWTLRRTKELRKD"}, "B2": {"name": "TRAF3IP2 (parent)", "chain": "PGQPLPGASVRGLHPVQKVILNYP"}}, "data": [{"variants_of": "B1", "experiment": "protein stability index of a GFP-peptide fusion (GPS, HEK-293T) (PSI 1-6); higher = more stable", "details": "c terminus: a fixed tail appended", "values": [{"variant": "ARKYFERCPGGGWTLRRTKELRKD", "note": "[L8C]", "protein stability index": 3.18}, {"variant": "ARKYFERPPGGGWTLRRTKELRKD", "note": "[L8P]", "protein stability index": 3.85}, {"variant": "ARKYFERFPGGGWTLRRTKELRKD", "note": "[L8F]", "protein stability index": 2.57}, {"variant": "ARKYFERRPGGGWTLRRTKELRKD", "note": "[L8R]", "protein stability index": 3.25}, {"variant": "ARKYFERMPGGGWTLRRTKELRKD", "note": "[L8M]", "protein stability index": 3.47}, {"variant": "ARKYFERVPGGGWTLRRTKELRKD", "note": "[L8V]", "protein stability index": 3.84}, {"variant": "ARKYFERHPGGGWTLRRTKELRKD", "note": "[L8H]", "protein stability index": 3.32}, {"variant": "ARKYFERTPGGGWTLRRTKELRKD", "note": "[L8T]", "protein stability index": 4.18}, {"variant": "ARCYFERLPGGGWTLRRTKELRKD", "note": "[K3C]", "protein stability index": 3.24}, {"variant": "AREYFERLPGGGWTLRRTKELRKD", "note": "[K3E]", "protein stability index": 4.13}, {"variant": "ARAYFERLPGGGWTLRRTKELRKD", "note": "[K3A]", "protein stability index": 3.79}, {"variant": "ARYYFERLPGGGWTLRRTKELRKD", "note": "[K3Y]", "protein stability index": 2.58}, {"variant": "ARMYFERLPGGGWTLRRTKELRKD", "note": "[K3M]", "protein stability index": 3.12}, {"variant": "ARWYFERLPGGGWTLRRTKELRKD", "note": "[K3W]", "protein stability index": 2.6}, {"variant": "ARRYFERLPGGGWTLRRTKELRKD", "note": "[K3R]", "protein stability index": 3.9}, {"variant": "ARGYFERLPGGGWTLRRTKELRKD", "note": "[K3G]", "protein stability index": 3.51}, {"variant": "ARNYFERLPGGGWTLRRTKELRKD", "note": "[K3N]", "protein stability index": 2.5}, {"variant": "ARLYFERLPGGGWTLRRTKELRKD", "note": "[K3L]", "protein stability index": 2.48}, {"variant": "ARIYFERLPGGGWTLRRTKELRKD", "note": "[K3I]", "protein stability index": 1.92}, {"variant": "ARTYFERLPGGGWTLRRTKELRKD", "note": "[K3T]", "protein stability index": 3.55}, {"variant": "ARFYFERLPGGGWTLRRTKELRKD", "note": "[K3F]", "protein stability index": 1.98}, {"variant": "ARQYFERLPGGGWTLRRTKELRKD", "note": "[K3Q]", "protein stability index": 3.67}, {"variant": "ARSYFERLPGGGWTLRRTKELRKD", "note": "[K3S]", "protein stability index": 3.55}, {"variant": "ARVYFERLPGGGWTLRRTKELRKD", "note": "[K3V]", "protein stability index": 2.69}, {"variant": "ARPYFERLPGGGWTLRRTKELRKD", "note": "[K3P]", "protein stability index": 2.96}, {"variant": "ARHYFERLPGGGWTLRRTKELRKD", "note": "[K3H]", "protein stability index": 3.56}, {"variant": "ARKYFEYLPGGGWTLRRTKELRKD", "note": "[R7Y]", "protein stability index": 3.25}, {"variant": "ARKYFEELPGGGWTLRRTKELRKD", "note": "[R7E]", "protein stability index": 4.31}, {"variant": "ARKYFEFLPGGGWTLRRTKELRKD", "note": "[R7F]", "protein stability index": 2.41}, {"variant": "ARKYFECLPGGGWTLRRTKELRKD", "note": "[R7C]", "protein stability index": 2.88}, {"variant": "ARKYFESLPGGGWTLRRTKELRKD", "note": "[R7S]", "protein stability index": 3.23}, {"variant": "ARKYFEMLPGGGWTLRRTKELRKD", "note": "[R7M]", "protein stability index": 3.67}, {"variant": "ARKYFENLPGGGWTLRRTKELRKD", "note": "[R7N]", "protein stability index": 2.83}, {"variant": "ARKYFEQLPGGGWTLRRTKELRKD", "note": "[R7Q]", "protein stability index": 4.13}, {"variant": "ARKYFEALPGGGWTLRRTKELRKD", "note": "[R7A]", "protein stability index": 3.3}, {"variant": "ARKYFEDLPGGGWTLRRTKELRKD", "note": "[R7D]", "protein stability index": 3.21}, {"variant": "ARKYFEKLPGGGWTLRRTKELRKD", "note": "[R7K]", "protein stability index": 3.52}, {"variant": "ARKYFEPLPGGGWTLRRTKELRKD", "note": "[R7P]", "protein stability index": 3.94}, {"variant": "ARKYFEILPGGGWTLRRTKELRKD", "note": "[R7I]", "protein stability index": 2.64}, {"variant": "ARKYFEVLPGGGWTLRRTKELRKD", "note": "[R7V]", "protein stability index": 3.33}, {"variant": "ARKYFEHLPGGGWTLRRTKELRKD", "note": "[R7H]", "protein stability index": 3.08}, {"variant": "ARKYFEWLPGGGWTLRRTKELRKD", "note": "[R7W]", "protein stability index": 2.81}, {"variant": "ARKYFELLPGGGWTLRRTKELRKD", "note": "[R7L]", "protein stability index": 2.77}, {"variant": "ARKYFETLPGGGWTLRRTKELRKD", "note": "[R7T]", "protein stability index": 2.99}, {"variant": "ARKYFEGLPGGGWTLRRTKELRKD", "note": "[R7G]", "protein stability index": 2.84}, {"variant": "ARKYFSRLPGGGWTLRRTKELRKD", "note": "[E6S]", "protein stability index": 3.21}, {"variant": "ARKYFYRLPGGGWTLRRTKELRKD", "note": "[E6Y]", "protein stability index": 3.62}, {"variant": "ARKYFRRLPGGGWTLRRTKELRKD", "note": "[E6R]", "protein stability index": 4.86}, {"variant": "ARKYFDRLPGGGWTLRRTKELRKD", "note": "[E6D]", "protein stability index": 3.69}, {"variant": "ARKYFFRLPGGGWTLRRTKELRKD", "note": "[E6F]", "protein stability index": 3.37}, {"variant": "ARKYFKRLPGGGWTLRRTKELRKD", "note": "[E6K]", "protein stability index": 2.78}, {"variant": "ARKYFHRLPGGGWTLRRTKELRKD", "note": "[E6H]", "protein stability index": 3.34}, {"variant": "ARKYFMRLPGGGWTLRRTKELRKD", "note": "[E6M]", "protein stability index": 2.36}, {"variant": "ARKYFLRLPGGGWTLRRTKELRKD", "note": "[E6L]", "protein stability index": 2.64}, {"variant": "ARKYFARLPGGGWTLRRTKELRKD", "note": "[E6A]", "protein stability index": 4.08}, {"variant": "ARKYFCRLPGGGWTLRRTKELRKD", "note": "[E6C]", "protein stability index": 3.85}, {"variant": "ARKYFVRLPGGGWTLRRTKELRKD", "note": "[E6V]", "protein stability index": 3.35}, {"variant": "ARKYFNRLPGGGWTLRRTKELRKD", "note": "[E6N]", "protein stability index": 3.07}, {"variant": "ARKYFIRLPGGGWTLRRTKELRKD", "note": "[E6I]", "protein stability index": 3.38}, {"variant": "ARKYFWRLPGGGWTLRRTKELRKD", "note": "[E6W]", "protein stability index": 2.67}, {"variant": "ARKYFTRLPGGGWTLRRTKELRKD", "note": "[E6T]", "protein stability index": 3.78}, {"variant": "ARKYFPRLPGGGWTLRRTKELRKD", "note": "[E6P]", "protein stability index": 3.39}, {"variant": "ARKYFQRLPGGGWTLRRTKELRKD", "note": "[E6Q]", "protein stability index": 2.55}]}, {"variants_of": "B2", "experiment": "protein stability index of a GFP-peptide fusion (GPS, HEK-293T) (PSI 1-6); higher = more stable", "details": "c terminus: a fixed tail appended", "values": [{"variant": "PGQPLPGASVRGLHPVQKVILNYG", "note": "[P24G]", "protein stability index": 2.56}, {"variant": "PGQPLPGASVRGLHPVQKVILNYL", "note": "[P24L]", "protein stability index": 2.13}, {"variant": "PGQPLPGASVRGLHPVQKVILNYT", "note": "[P24T]", "protein stability index": 2.71}, {"variant": "PGQPLPGASVRGLHPVQKVILNYK", "note": "[P24K]", "protein stability index": 3.43}, {"variant": "PGQPLPGASVRGLHPVQKVILNYA", "note": "[P24A]", "protein stability index": 3.16}, {"variant": "PGQPLPGASVRGLHPVQKVILNYF", "note": "[P24F]", "protein stability index": 1.78}, {"variant": "PGQPLPGASVRGLHPVQKVILNYE", "note": "[P24E]", "protein stability index": 3.31}, {"variant": "PGQPLPGASVRGLHPVQKVILNYN", "note": "[P24N]", "protein stability index": 3.5}, {"variant": "PGQPLPGASVRGLHPVQKVILNYC", "note": "[P24C]", "protein stability index": 2.69}, {"variant": "PGQPLPGASVRGLHPVQKVILNYS", "note": "[P24S]", "protein stability index": 2.7}, {"variant": "PGQPLPGASVRGLHPVQKVILNYQ", "note": "[P24Q]", "protein stability index": 3.11}, {"variant": "PGQPLPGASVRGLHPVQKVILNYY", "note": "[P24Y]", "protein stability index": 1.79}, {"variant": "PGQPLPGASVRGLHPVQKVILNYV", "note": "[P24V]", "protein stability index": 1.93}, {"variant": "PGQPLPGASVRGLHPVQKVILNYH", "note": "[P24H]", "protein stability index": 2.38}, {"variant": "PGQPLPGASVRGLHPVQKVILNYW", "note": "[P24W]", "protein stability index": 2.72}, {"variant": "PGQPLPGASVRGLHPVQKVILNYR", "note": "[P24R]", "protein stability index": 2.65}, {"variant": "PGQPLPGASVRGLHPVQKVILNYI", "note": "[P24I]", "protein stability index": 1.77}, {"variant": "PGQPLPGASVRGLHPVQKVILNYD", "note": "[P24D]", "protein stability index": 3.68}, {"variant": "PGQPLPGASVRGLHPVQKVILNYM", "note": "[P24M]", "protein stability index": 1.22}, {"variant": "PGQPLPGASVRGLHPVQKVILNTP", "note": "[Y23T]", "protein stability index": 3.43}, {"variant": "PGQPLPGASVRGLHPVQKVILNQP", "note": "[Y23Q]", "protein stability index": 4.07}, {"variant": "PGQPLPGASVRGLHPVQKVILNLP", "note": "[Y23L]", "protein stability index": 2.71}, {"variant": "PGQPLPGASVRGLHPVQKVILNRP", "note": "[Y23R]", "protein stability index": 3.5}, {"variant": "PGQPLPGASVRGLHPVQKVILNIP", "note": "[Y23I]", "protein stability index": 3.19}, {"variant": "PGQPLPGASVRGLHPVQKVILNPP", "note": "[Y23P]", "protein stability index": 4.11}, {"variant": "PGQPLPGASVRGLHPVQKVILNNP", "note": "[Y23N]", "protein stability index": 3.63}, {"variant": "PGQPLPGASVRGLHPVQKVILNVP", "note": "[Y23V]", "protein stability index": 3.26}, {"variant": "PGQPLPGASVRGLHPVQKVILNSP", "note": "[Y23S]", "protein stability index": 4.02}, {"variant": "PGQPLPGASVRGLHPVQKVILNWP", "note": "[Y23W]", "protein stability index": 2.52}, {"variant": "PGQPLPGASVRGLHPVQKVILNMP", "note": "[Y23M]", "protein stability index": 3.36}, {"variant": "PGQPLPGASVRGLHPVQKVILNKP", "note": "[Y23K]", "protein stability index": 4.43}]}]}
